In patent publication US20170037110A1 (IMMATICS BIOTECHNOLOGIES, published 2017):

B1: GLLPTPLFGV (peptide)
peptide: GLLPTPLFGV
B2: FLLAEDDIYL (peptide)
peptide: FLLAEDDIYL
B3: SLVGEPILQNV (peptide)
peptide: SLVGEPILQNV
B4: YMDAPKAAL (peptide)
peptide: YMDAPKAAL
B5: YLQELIFSV (peptide)
peptide: YLQELIFSV
B6: ILPDGEDFLAV (peptide)
peptide: ILPDGEDFLAV
B7: SLASKLTTL (peptide)
peptide: SLASKLTTL
B8: YIMEPSIFNTL (peptide)
peptide: YIMEPSIFNTL
B9: SVMEVNSGIYRV (peptide)
peptide: SVMEVNSGIYRV
B10: ILFEDIFDV (peptide)
peptide: ILFEDIFDV
B11: YLLSTNAQL (peptide)
peptide: YLLSTNAQL
B12: RVANLHFPSV (peptide)
peptide: RVANLHFPSV
B13: ALDDGTPAL (peptide)
peptide: ALDDGTPAL
B14: LLYDAVHIVSV (peptide)
peptide: LLYDAVHIVSV
B15: YVWGFYPAEV (peptide)
peptide: YVWGFYPAEV
B16: GLLDGGVDILL (peptide)
peptide: GLLDGGVDILL
B17: LLQAIKLYL (peptide)
peptide: LLQAIKLYL
B18: SLNDEVPEV (peptide)
peptide: SLNDEVPEV
B19: FLQPVDDTQHL (peptide)
peptide: FLQPVDDTQHL
B20: YLDFSNNRL (peptide)
peptide: YLDFSNNRL
B21: FLYIGDIVSL (peptide)
peptide: FLYIGDIVSL
B22: LLLDITPEI (peptide)
peptide: LLLDITPEI
B23: YLFDDPLSAV (peptide)
peptide: YLFDDPLSAV
B24: SLLEAVSFL (peptide)
peptide: SLLEAVSFL
B25: KVLSNIHTV (peptide)
peptide: KVLSNIHTV
B26: FVPPVTVFPSL (peptide)
peptide: FVPPVTVFPSL
B27: KLIDNNINV (peptide)
peptide: KLIDNNINV
B28: VLAYFLPEA (peptide)
peptide: VLAYFLPEA
B29: FLIANVLYL (peptide)
peptide: FLIANVLYL
B30: AIAGAGILYGV (peptide)
peptide: AIAGAGILYGV
B31: ALYETELADA (peptide)
peptide: ALYETELADA
B32: VLVSDGVHSV (peptide)
peptide: VLVSDGVHSV
B33: ALSEVDFQL (peptide)
peptide: ALSEVDFQL
B34: ALVSKGLATV (peptide)
peptide: ALVSKGLATV
B35: SVIPQIQKV (peptide)
peptide: SVIPQIQKV
B36: KIGDEPPKV (peptide)
peptide: KIGDEPPKV
B37: TLVLTLPTV (peptide)
peptide: TLVLTLPTV
B38: YHIDEEVGF (peptide)
peptide: YHIDEEVGF
B39: RLWEEGEELEL (peptide)
peptide: RLWEEGEELEL
B40: SLMEPPAVLLL (peptide)
peptide: SLMEPPAVLLL
B41: GIMEHITKI (peptide)
peptide: GIMEHITKI
B42: FLSQVDFEL (peptide)
peptide: FLSQVDFEL
B43: VQIHQVAQV (peptide)
peptide: VQIHQVAQV
B44: IILSILEQA (peptide)
peptide: IILSILEQA
B45: YIFTDNPAAV (peptide)
peptide: YIFTDNPAAV
B46: YLIDIKTIAI (peptide)
peptide: YLIDIKTIAI
B47: YLADPSNLFVV (peptide)
peptide: YLADPSNLFVV
B48: ALNPEIVSV (peptide)
peptide: ALNPEIVSV
B49: ILVGGGALATV (peptide)
peptide: ILVGGGALATV
B50: FLWNGEDSALL (peptide)
peptide: FLWNGEDSALL
B51: YQYPRAILSV (peptide)
peptide: YQYPRAILSV
B52: SLLEADPFL (peptide)
peptide: SLLEADPFL
B53: FLFATPVFI (peptide)
peptide: FLFATPVFI
B54: SLVGLLLYL (peptide)
peptide: SLVGLLLYL
B55: SLINGSFLV (peptide)
peptide: SLINGSFLV
B56: TLAEEVVAL (peptide)
peptide: TLAEEVVAL
B57: YLFESEGLVL (peptide)
peptide: YLFESEGLVL
B58: ALLGIPLTLV (peptide)
peptide: ALLGIPLTLV
B59: GVVDPRAISVL (peptide)
peptide: GVVDPRAISVL
B60: LIIDQADIYL (peptide)
peptide: LIIDQADIYL
B61: FLATSGTLAGI (peptide)
peptide: FLATSGTLAGI
B62: HLTEVYPEL (peptide)
peptide: HLTEVYPEL
B63: NLWDLTDASVV (peptide)
peptide: NLWDLTDASVV
B64: ALFPGVALLLA (peptide)
peptide: ALFPGVALLLA
B65: STMEQNFLL (peptide)
peptide: STMEQNFLL
B66: NLLELFVQL (peptide)
peptide: NLLELFVQL
B67: SLATAGDGLIEL (peptide)
peptide: SLATAGDGLIEL
B68: KILQQLVTL (peptide)
peptide: KILQQLVTL
B69: LLVEQPPLAGV (peptide)
peptide: LLVEQPPLAGV

Biological target: T1, HLA-A*02:01 (human)
T1 construct: monomers captured on streptavidin plates; also called MHC class I
Assay: UV peptide exchange ELISA
Text: Candidate peptides for T cell based therapies according to the present invention were further tested for their MHC binding capacity (affinity). The individual peptide-MHC complexes were produced by UV-ligand exchange, where a UV-sensitive peptide is cleaved upon UV-irradiation, and exchanged with the peptide of interest as analyzed. Only peptide candidates that can effectively bind and stabilize the peptide-receptive MHC molecules prevent dissociation of the MHC complexes. To determine the yield of the exchange reaction, an ELISA was performed based on the detection of the light chain (p2m) of stabilized MHC complexes.
96 well MAXISorp plates (NUNC) were coated over night with 2 μg/ml streptavidin in PBS at room temperature, washed 4× and blocked for 1 h at 37° C. in 2% BSA containing blocking buffer. […] Peptide-MHC monomers of the UV-exchange reaction were diluted 100 fold in blocking buffer. Samples were incubated for 1h at 37° C., washed four times, incubated with 2 μg/ml HRP conjugated anti-p2m for 1h at 37° C., washed again and detected with TMB solution that is stopped with […]. Absorption was measured at 450 nm.

| Binder | peptide exchange yield |
| --- | --- |
| B1 | 50 to 75% |
| B2 | 50 to 75% |
| B3 | 20 to 50% |
| B4 | 20 to 50% |
| B5 | 50 to 75% |
| B6 | 50 to 75% |
| B7 | ≥ 75% |
| B8 | 50 to 75% |
| B9 | 50 to 75% |
| B10 | 50 to 75% |
| B11 | ≥ 75% |
| B12 | 50 to 75% |
| B13 | 20 to 50% |
| B14 | 50 to 75% |
| B15 | 50 to 75% |
| B16 | 50 to 75% |
| B17 | 20 to 50% |
| B18 | 20 to 50% |
| B19 | 50 to 75% |
| B20 | 20 to 50% |
| B21 | ≥ 75% |
| B22 | ≥ 75% |
| B23 | 20 to 50% |

| Binder | peptide exchange yield |
| --- | --- |
| B24 | 50 to 75% |
| B25 | 20 to 50% |
| B26 | 20 to 50% |
| B27 | 50 to 75% |
| B28 | ≥ 75% |
| B29 | 10 to 20% |
| B30 | 20 to 50% |
| B31 | 20 to 50% |
| B32 | 50 to 75% |
| B33 | 50 to 75% |
| B34 | 20 to 50% |
| B35 | 50 to 75% |
| B36 | 20 to 50% |
| B37 | ≥ 75% |
| B38 | 10 to 20% |
| B39 | 50 to 75% |
| B40 | 50 to 75% |
| B41 | ≥ 75% |
| B42 | 50 to 75% |
| B43 | 50 to 75% |
| B44 | ≥ 75% |
| B45 | 50 to 75% |
| B46 | 20 to 50% |

| Binder | peptide exchange yield |
| --- | --- |
| B47 | 50 to 75% |
| B48 | 20 to 50% |
| B49 | 50 to 75% |
| B50 | 50 to 75% |
| B51 | 50 to 75% |
| B52 | 50 to 75% |
| B53 | 50 to 75% |
| B54 | ≥ 75% |
| B55 | 50 to 75% |
| B56 | 50 to 75% |
| B57 | 50 to 75% |
| B58 | 50 to 75% |
| B59 | 20 to 50% |
| B60 | 50 to 75% |
| B61 | 20 to 50% |
| B62 | 50 to 75% |
| B63 | 50 to 75% |
| B64 | ≥ 75% |
| B65 | ≥ 75% |
| B66 | 50 to 75% |
| B67 | 20 to 50% |
| B68 | 50 to 75% |
| B69 | 50 to 75% |
